US20250011456A1, “ANTIBODIES AGAINST CD14 AND USES THEREOF” (Villanelle Life Science Inc, priority 2023, published 2025)
Several values for one entry are separate records, joined by “and”; a condition that tells them apart may be missing. Identical values can stand only once.

Tests used:
[1] = target: T1, human CD14 antigen (B294801, histidine tagged) (Homo sapiens, UniProt P08571); assay: Biacore 8K kinetic and affinity test of antibodies without PTM sites (Example 9); assay type: binding
T1 construct: His; purchased Shanghai BaiYing Biotechnology Co., Ltd B294801 (Batch number 20200518A22)
T1 sequence (P08571 20-345): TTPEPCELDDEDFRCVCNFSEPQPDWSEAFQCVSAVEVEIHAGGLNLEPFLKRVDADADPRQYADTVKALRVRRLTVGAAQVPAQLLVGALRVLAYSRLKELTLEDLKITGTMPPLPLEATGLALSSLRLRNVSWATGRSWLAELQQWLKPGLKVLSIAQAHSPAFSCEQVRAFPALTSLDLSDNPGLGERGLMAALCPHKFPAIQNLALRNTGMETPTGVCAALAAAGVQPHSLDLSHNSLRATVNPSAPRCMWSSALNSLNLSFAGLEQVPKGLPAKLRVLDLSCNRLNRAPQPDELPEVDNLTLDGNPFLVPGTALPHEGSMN
Procedure: Experimental reagents and consumables included cell culture fluid, electroporation buffer, CHO cells, 1 mL electroporation cuvette, Protein A chip (Cytiva, 29127556), various sizes of shake flasks, and various sizes of pipettes. Main instruments and equipment included a shaker (Taicang Huamei), centrifuge (Baiyang), ultrapure water system (Millipore), constant temperature incubator (BLUE PARD), electroporator, water bath, Biacore 8K (Cytiva), and ELISA system (Molecular Devices).
The antigen used for the binding affinity measurements is B294801. This antigen is a human CD14 antigen that is histidine tagged. D6DD3D001 is a mouse antibody, and MPDDAD001-MPDDAD005 are humanized antibodies. The antibodies are recombinant, human (hFc Tag). Selected parameters of the experimental samples are shown in Table 9-1, with MW referring to molecular weight in kDa.
The Biacore 8K platform was used to test the kinetic and affinity properties of the antibody, operating according to system instructions and indications.
Results of Affinity Detection. The affinity of the six antibodies was measured at saturation concentration. For the experiments, the analyte solution comprises the B294801 antigen with an analyte concentration of 0.1953125 nM, 0.390625 nM, 0.78125 nM, 1.5625 nM, 3.125 nM, 6.25 nM, 12.5 nM, and 25 nM. Change factor is described above.

[2] = target: T2, recombinant human CD14 (B294801, histidine tagged) (Homo sapiens, UniProt P08571); assay: Biacore 8K kinetic and affinity test of humanized antibodies (Example 8); assay type: binding
T2 construct: His; purchased Shanghai BaiYing Biotechnology Co., Ltd B294801 (Batch number 20200518A22)
T2 sequence (P08571 20-345): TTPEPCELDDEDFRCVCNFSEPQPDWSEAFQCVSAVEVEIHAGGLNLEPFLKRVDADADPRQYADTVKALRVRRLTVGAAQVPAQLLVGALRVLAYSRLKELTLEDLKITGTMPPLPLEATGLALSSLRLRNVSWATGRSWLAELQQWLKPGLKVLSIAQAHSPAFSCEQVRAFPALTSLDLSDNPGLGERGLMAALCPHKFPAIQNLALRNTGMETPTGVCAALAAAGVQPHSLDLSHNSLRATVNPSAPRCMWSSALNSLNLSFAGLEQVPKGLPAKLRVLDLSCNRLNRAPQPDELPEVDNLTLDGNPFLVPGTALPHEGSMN
Procedure: Experimental reagents and consumables included Protein A chip (Cytiva, 29127556). Main instruments and equipment included Biacore 8K (Cytiva), shaker (Taicang Huamei), ELISA system (Molecular Devices), centrifuge (Baiyang), ultrapure water system (Millipore), and thermostatic incubator (BLUE PARD).
The antigen used for the binding affinity measurements is B294801. This antigen is a recombinant human CD14 antigen that is histidine tagged and has a molecular weight of 36 kDa. B294801 was purchased from Shanghai BaiYing Biotechnology Co., Ltd (name: Recombinant Human CD14/His Protein; Batch number 20200518A22). D6DD3D001 is a mouse antibody, and D6DD3D002-D6DD3D0016 are humanized antibodies. The antibodies are recombinant, human (hFc Tag). Selected parameters of the experimental samples are shown in Table 8-1, with MW referring to molecular weight in kiloDaltons (kDa).
The Biacore 8K platform was used to test the kinetic and affinity properties of the antibody. The operation was carried out according to the system instructions and indications.
The equilibrium dissociation constant (KD) reflects the affinity of the antibody to the target, with a smaller value indicating a stronger affinity. KD (in units of molarity) is determined by the ratio of the dissociation rate constant (koff) and the association rate constant (kon), that is, KD=Koff/kon.
15 humanized antibodies (numbered D6DD3D002-D6DD3D0016) and 1 mouse antibody (number D6DD3D001) were tested. For the experiments, the analyte solution comprises the B294801 antigen with an analyte concentration of 0.78125 nM, 1.5625 nM, 3.125 nM, 6.25 nM, 12.5 nM, and 25 nM. The capture concentration was 1 μg/mL. In Table 8-3, the change factor is the ratio of the equilibrium dissociation constant KD of the humanized to mouse antibody, and reflects the change in affinity after humanization.

[3] = tested on: CD14 positive recurrent bladder cancer patient-derived xenograft (PDX); assay: Anti-CD14 IgG1/IgG4 with or without cisplatin, tumor treatment in PDX mice (tumor length, width, volume, tumor weight; Example 6); assay type: in vivo; conditions: for Tumor Length / Tumor Volume / Tumor Width: IgG4 5 mg/kg i.v. (Ex. 2), PDX mice 1-6
Description: After removing the primary tumor tissue from the patient, the tissue was temporarily placed in a complete culture medium containing RPMI1640 (Gibco Roswell Park Memorial Institute 1640 Media)+PS (penicillin and streptomycin)+10% FBS (Fetal bovine serum). The tissue was then transported to a sterile operating room within an SPF-grade (Specific Pathogen Free) animal facility. The tumor tissue was cut to an appropriate size (5 millimeters (mm) in diameter). Severely immunodeficient NSG (NOD scid gamma mouse) mice were anesthetized using an isoflurane respirator. The tumor was transplanted subcutaneously into the right rib area through surgery. When the tumor volume reached 1 cm^3, it was passaged following the same procedure, and after expanding for three generations, the tumor became stable for use in formal experiments. During the experiment, passaging and expansion were performed as needed. When the tumor volume reached 100 mm^3, the mice were divided into groups according to the experimental requirements and treated with drugs.
The IgG4 tested is the original version of Atibuclimab.
Drug administration on the PDX mice was performed intravenously.

[4] = Biacore 8K, analyte B294801 0.1953125-25 nM, capture conc. 1 μg/mL
[5] = Biacore 8K, analyte B294801 0.78125-25 nM, capture 1 μg/mL

B1: MPDDAD003: D6DD3D014-derived antibody with PTM site removed; VL amino acid nos. 34, 35: TS (antibody, V domains shown)
VH: QLQLQESGPGLVKPSETLSLTCTVSGGSISSDSAWNWIRQPPGKGLEWIGYISYSGSTSYNPSLKSRVTISRDTSKNQFSLKLSSVTAADTAVYYCVRGLRFAYWGQGTLVTVSS
VL: DIQLTQSPSSLSASVGDRVTITCRASESVDSYVTSFLHWYQQKPGKAPKLLIYRASNLQSGVPSRFSGSGSRTDFTLTISSLQPEDVATYYCQQSNEDPYTFGQGTKLEIK
With B1 the Koff [1, 4] was 0.0026 s⁻¹, the “kon (1:1 binding)” value [1, 4] was 1.29e+06 M⁻¹ s⁻¹ and the “affinity compared with the humanized antibody D6DD3D014” value ([1]; Biacore, B294801 antigen) was “approximately equivalent to the affinity of the humanized antibody D6DD3D014”. The “affinity compared with the murine antibody D6DD3D001” value ([1]; Biacore, B294801 antigen) was “within three times less than the affinity of the murine antibody D6DD3D001”.

B2: D6DD3D004: humanized anti-CD14 antibody; VH SEQ ID NO: 13, VL SEQ ID NO: 15 (antibody, V domains shown)
VH: QLQLQESGPGLVKPSETLSLTCTVSGGSISSDSAWNWIRQPPGKGLEWIGYISYSGSTSYNPSLKSRVTISRDTSKNQFSLKLSSVTAADTAVYYCVRGLRFAYWGQGTLVTVSS
VL: EIVLTQSPATLSLSPGERATLSCRASESVDSYVNSFLHWYQQKPGQAPRLLIYRASNLQSGIPARFSGSGSRTDFTLTISSLEPEDVAVYYCQQSNEDPYTFGQGTKLEIK
B2 was tested, and the Kd ([2]; Biacore 8K, KD=koff/kon, analyte B294801 0.78125-25 nM, capture 1 μg/mL) was 1.99 nM, the “koff (1:1 binding)” value [2, 5] was 0.00326 s⁻¹ and the “kon (1:1 binding)” value [2, 5] was 1.64e+06 M⁻¹ s⁻¹. For the same molecule, the “Change Factor (ratio of KD of the humanized to mouse antibody)” value ([2]; relative to mouse antibody D6DD3D001) was 4.10.

B3: IgG4: The IgG4 tested is the original version of Atibuclimab (anti-CD14 antibody) (antibody, V domains shown)
VH: DVQLQQSGPGLVKPSQSLSLTCTVTGYSITSDSAWNWIRQFPGNRLEWMGYISYSGSTSYNPSLKSRISITRDTSKNQFFLQLNSVTTEDTATYYCVRGLRFAYWGQGTLVTVSS
VL: DIVLTQSPASLAVSLGQRATISCRASESVDSYVNSFLHWYQQKPGQPPKLLIYRASNLQSGIPARFSGSGSRTDFTLTINPVEADDVATYYCQQSNEDPYTFGGGTKLEIK
modifications: IgG4 constant regions
B3 was tested, and the “Tumor Length” value ([3]; Day 0, 5 mg/kg) was 6.27 mm and 8.76 mm and 6.59 mm and 7.42 mm and 6.33 mm and 6.02 mm, the “Tumor Volume” value ([3]; Day 0, 5 mg/kg) was 71.87 mm^3 and 99.55 mm^3 and 90.05 mm^3 and 93.23 mm^3 and 102.04 mm^3 and 77.19 mm^3 and the “Tumor Width” value ([3]; Day 0, 5 mg/kg) was 4.68 mm and 4.66 mm and 5.11 mm and 4.9 mm and 5.55 mm and 4.95 mm. The “Tumor Length” value ([3]; Day 4, 5 mg/kg) was 6.09 mm and 6.4 mm and 7.29 mm and 6.97 mm and 6.34 mm and 6.38 mm, the “Tumor Volume” value ([3]; Day 4, 5 mg/kg) was 113.97 mm^3 and 113.45 mm^3 and 97.29 mm^3 and 124.83 mm^3 and 104.42 mm^3 and 77.89 mm^3 and the “Tumor Width” value ([3]; Day 4, 5 mg/kg) was 5.98 mm and 5.82 mm and 5.05 mm and 5.85 mm and 5.61 mm and 4.83 mm. The “Tumor Length” value ([3]; Day 7, 5 mg/kg) was 7.28 mm and 7.86 mm and 8.67 mm and 6.99 mm and 8.27 mm, the “Tumor Volume” value ([3]; Day 7, 5 mg/kg) was 180.86 mm^3 and 117.78 mm^3 and 198.12 mm^3 and 140.77 mm^3 and 173.66 mm^3 and 136.21 mm^3 and the “Tumor Width” value ([3]; Day 7, 5 mg/kg) was 6.89 mm and 5.56 mm and 6.94 mm and 5.57 mm and 5.61 mm. The “Tumor Length” value ([3]; Day 11, 5 mg/kg) was 8.11 mm and 8.29 mm and 6.98 mm and 8.22 mm and 7.53 mm and 8.23 mm, the “Tumor Width” value ([3]; Day 11, 5 mg/kg) was 5.81 mm and 7.35 mm and 5.72 mm and 8.04 mm and 7.15 mm and 7.08 mm and the “Tumor Length” value ([3]; Day 14, 5 mg/kg) was 8.23 mm and 8.98 mm and 8.47 mm and 7.26 mm and 9.3 mm and 9.49 mm. For the same molecule, the “Tumor Volume” value ([3]; Day 14, 5 mg/kg) was 222.04 mm^3 and 307.58 mm^3 and 251.33 mm^3 and 190.45 mm^3 and 320.90 mm^3 and 371.60 mm^3, the “Tumor Width” value ([3]; Day 14, 5 mg/kg) was 7.18 mm and 8.09 mm and 7.53 mm and 7.08 mm and 8.12 mm and 8.65 mm and the “Tumor Length” value ([3]; Day 18, 5 mg/kg) was 8.68 mm and 10.39 mm and 9.13 mm and 9.05 mm and 9.45 mm and 9.95 mm. For the same molecule, the “Tumor Volume” value ([3]; Day 18, 5 mg/kg) was 324.35 mm^3 and 536.16 mm^3 and 383.59 mm^3 and 344.61 mm^3 and 334.97 mm^3 and 363.06 mm^3, the “Tumor Width” value ([3]; Day 18, 5 mg/kg) was 8.45 mm and 9.93 mm and 8.96 mm and 8.53 mm and 8.23 mm and 8.35 mm and the “Tumor Length” value ([3]; Day 21, 5 mg/kg) was 10.54 mm and 10.95 mm and 9.73 mm and 10.89 mm and 10.09 mm and 10.17 mm. For the same molecule, the “Tumor Volume” value ([3]; Day 21, 5 mg/kg) was 450.77 mm^3 and 632.99 mm^3 and 424.46 mm^3 and 505.72 mm^3 and 463.61 mm^3 and 487.44 mm^3, the “Tumor Width” value ([3]; Day 21, 5 mg/kg) was 9.04 mm and 10.51 mm and 9.13 mm and 9.42 mm and 9.37 mm and 9.57 mm and the “Tumor Length” value ([3]; Day 25, 5 mg/kg) was 12.37 mm and 11.71 mm and 10.99 mm and 12.36 mm and 12.63 mm. The “Tumor Volume” value ([3]; Day 25, 5 mg/kg) was 724.64 mm^3 and 746.92 mm^3 and 567.12 mm^3 and 525.64 mm^3 and 639.10 mm^3 and 698.50 mm^3, the “Tumor Width” value ([3]; Day 25, 5 mg/kg) was 10.58 mm and 11.04 mm and 9.93 mm and 9.56 mm and 9.94 mm and 10.28 mm and the “Tumor Length” value ([3]; Day 28, 5 mg/kg) was 11.25 mm and 11.92 mm and 12.46 mm and 12.52 mm and 12.24 mm and 12.94 mm. For the same molecule, the “Tumor Volume” value ([3]; Day 28, 5 mg/kg) was 728.02 mm^3 and 719.55 mm^3 and 840.02 mm^3 and 932.53 mm^3 and 835.40 mm^3 and 919.10 mm^3, the “Tumor Width” value ([3]; Day 28, 5 mg/kg) was 11.12 mm and 10.74 mm and 11.35 mm and 11.93 mm and 11.42 mm and 11.65 mm and the “Tumor weight after 28 days” value ([3]; IgG4 (5 mg/kg), Ex. 2, per mouse 1-6, 5 mg/kg) was 0.779 grams and 0.769 grams and 0.739 grams and 0.863 grams and 0.852 grams and 0.649 grams. For the same molecule, the tumor suppression rate ([3]; single anti-CD14-IgG4 5 mg/kg (Ex. 2), after 28 days) was “about 25%”.
